Reference: article PMC2585861 (The Journal of General Physiology, 2008)

Target: the molecule itself
Assay: SEC

B1: KvLm-PM, pore module of KvLm (S4-S5 linker-S5-P-S6-C-terminus) (domain or fragment, Listeria monocytogenes, UniProt Q8Y5K1 98-247, looked up)
chain: RYIVPIYSFFRSNGLNRFLMIFVLLVIIIPVPMVFIEPEINNYPDALWWAIVTATTVGYGDIVPVTPIGRILASIMMLFGIAFIGMITSTITNFFRAKKPTNSSTQRANKITQLISETPDLTKEEIAVVEQFLTLRKKELADENTKSDSE
stoichiometry N: 4
